Laboratory results as given in paper PMC3701619, “High Levels of DegU-P Activate an Esat-6-Like Secretion System in Bacillus subtilis” (PLoS ONE, 2013).

Key:
[1] = target: the molecule itself; experiment: cross-linking; pure YukE-His6 (0.4 to 10.3 uM with 0.25 mM BS3; 20 to 84 uM with 1 mM BS3) in YukE buffer (50 mM HEPES-Na pH 7.0, 300 mM NaCl), 30 min at room temperature; 15% SDS-PAGE, Coomassie staining or Western blot with anti-YukE-His6
[2] = target: the molecule itself; experiment: cross-linking; concentrated, dialysed (25 mM HEPES pH 7, 250 mM NaCl) cell-free supernatant of a W654 culture at T2, 2.5 ug total protein, 1 mM or 5 mM BS3, 30 min at room temperature; Western blot with anti-YukE-His6

Row | Protein | stoichiometry N [1] | stoichiometry N [2]
1 | YukE-His6 (natural protein, B. subtilis, UniProt C0SP85 1-97, looked up, YukE, WXG100 protein of Bacillus subtilis; YukE-His6 is 12.17 kDa; The vector may add linker residues between YukE and the His6 tag; The vector is named pIVEX3.2d once and pIVEX2.3d once; also called recombinant YukE; YukE C-terminally tagged with a hexahistidine tail; not shown: His6, C-terminal, kept) MAGLIRVTPEELRAMAKQYGVESQEVLNQVDRLNRMISDLKSMWEGASSEAFADQYEQLKPSFIKMSDLLQDVNQQLDQTANTLESTDQDIANQIRG | 2 | 
2 | native YukE (natural protein, UniProt C0SP85 1-97, looked up, YukE, WXG100 protein of Bacillus subtilis, as secreted to the culture medium; predicted mass of the native dimer ~22 kDa; the protein here is from an ATCC 6051 derivative; also called YukE present in a concentrated culture supernatant of strain W654) MAGLIRVTPEELRAMAKQYGVESQEVLNQVDRLNRMISDLKSMWEGASSEAFADQYEQLKPSFIKMSDLLQDVNQQLDQTANTLESTDQDIANQIRG |  | 2
